Here are results for one molecule from patent US20150246947A1 (BAXALTA, published 2015).

In assay [1] the target is T1, human Protein S (human, UniProt P07225 42-676).
T1 sequence: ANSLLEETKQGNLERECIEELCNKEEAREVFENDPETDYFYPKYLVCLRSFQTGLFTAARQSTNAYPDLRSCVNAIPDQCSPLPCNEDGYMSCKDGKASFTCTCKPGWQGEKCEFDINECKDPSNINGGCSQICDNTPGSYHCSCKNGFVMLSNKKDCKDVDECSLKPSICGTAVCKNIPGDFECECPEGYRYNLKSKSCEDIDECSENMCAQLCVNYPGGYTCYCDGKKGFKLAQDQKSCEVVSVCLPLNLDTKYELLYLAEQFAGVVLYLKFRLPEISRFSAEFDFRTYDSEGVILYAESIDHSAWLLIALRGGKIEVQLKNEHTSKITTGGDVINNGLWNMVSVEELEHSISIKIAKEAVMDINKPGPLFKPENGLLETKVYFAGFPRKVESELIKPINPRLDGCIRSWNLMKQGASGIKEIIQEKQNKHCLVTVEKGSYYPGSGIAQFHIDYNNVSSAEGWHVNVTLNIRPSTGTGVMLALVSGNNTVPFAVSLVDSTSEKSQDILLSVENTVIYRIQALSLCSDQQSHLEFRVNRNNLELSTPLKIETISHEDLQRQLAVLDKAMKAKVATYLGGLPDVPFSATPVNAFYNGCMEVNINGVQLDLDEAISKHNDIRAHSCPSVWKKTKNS
Briefly: cell-based or functional assay.

Assay [2] has as its target T1, human Protein S. Briefly: cell-based or functional assay. This is another data set of the same source.
Assay [3] addresses T1, human Protein S. Briefly: Biacore (SPR), Protein S immobilized, 37 °C. The protocol:
Protein S affinity also was determined via Biacore (Biacore 3000 or Biacore T200) using human full-length Protein S and human GAS6. Briefly, 1000 RU of Protein S or GAS6 were immobilized on a CMS chip. In order to probe the kinetics of Protein S binding peptides to Protein S, the peptides were injected at various concentrations in a HBS-buffer containing 3 mM CaCl₂ and 1% DMSO to the flow cell and allowed to interact with the immobilized proteins on the sensor chip. The chip could be regenerated with 4 M MgCl₂ in HBS-buffer. Sensorgrams were fitted to a Langmuir binding model for the determination of kₒₙ and koff and the calculation of KD. Peptides were tested on their specificity to Protein S with peptide binding studies on the anti-target GAS6.

The target of assay [4] is T1, human Protein S. Briefly: LANCE TR-FRET competition; Eu-labeled Protein S; competitor tracer JBS0684. The method, then: (§1) Peptides also were characterized in a competition, homogenous europium-based TR-FRET assay (LANCE IC50 assay) using JBS0684 as a tracer (i.e., competitor for Protein S binding). The following reagents were mixed together in a Perkin-Elmer ProxiPlate MTP well (indicated concentration is the final concentration): Eu-labeled Protein S (10 nM), Ulight™-labeled Streptavidin (100 nM), tracer (JBS0684 (300 nM)), and peptide (titrated in three-fold dilution steps). The final volume was 50 μl/well. The reaction mix was incubated for 1 hour at room temperature, then the fluorescence emission at 665 nm was recorded on a multi-mode reader (SpectraMax® M5, Molecular Devices) using the following instrument settings: Ex 340 nm, Em 665 nm, delay 50 μsec, integration 100 μsec, reads 100. Binding of tracer peptides to soluble europium-labeled Protein S was detected by Streptavidin labeled with an acceptor fluorophor (ULight™). Inhibition of tracer-binding to Protein S by a non-biotinylated peptide results in a decrease of TR-FRET between the Eu-labeled Protein S and ULight™-labeled Streptavidin. IC50 values were obtained from peptide titration curves at constant tracer concentration using non-linear regression of the fluorescence emission signals at 665 nm.
Several peptides having multiple substitutions in the JBS2572 amino acid sequence were synthesized and evaluated using LANCE IC50 and CAT assays described above. For the assays, pooled normal plasma was supplemented with 3 nM APC and triggered with 6 pM TF, and 15 μM phospholipids (DOPC/POPS 80/20). Stock APC was diluted with TF-PL-MIX to 24 nM (plasma concentration: 3 nM).

Assay [5] has as its target T1, human Protein S. Briefly: LANCE TR-FRET competition; Protein S 2 nM, competitor tracer JBS0684 60 nM; Tecan F500 reader. The method, then: Peptides also were characterized in a competition, homogenous europium-based TR-FRET assay (LANCE IC50 assay) using JBS0684 as a tracer (i.e., competitor for Protein S binding). […] The final volume was 50 μl/well. […] Binding of tracer peptides to soluble europium-labeled Protein S was detected by Streptavidin labeled with an acceptor fluorophor (ULight™). Inhibition of tracer-binding to Protein S by a non-biotinylated peptide results in a decrease of TR-FRET between the Eu-labeled Protein S and ULight™-labeled Streptavidin. IC50 values were obtained from peptide titration curves at constant tracer concentration using non-linear regression of the fluorescence emission signals at 665 nm.

Assay [6] concerns the target T1, human Protein S. Briefly: LANCE TR-FRET competition; Eu-Protein S 10 nM, competitor tracer JBS0684 300 nM; Molecular Devices M5 reader. The protocol:
as §1

Take Ac-TGLVSAGWYDYNFDHYREFT-NH2 (also called parent peptide JBS2572) [JBS2572]: the “fold increase of activity in the CAT-assay compared to JBS2512” value in assay [1] worked out at 1.6 fold. Besides, the “CAT EC50” value in assay [2] is 0.151 µM. In assay [3], binding was characterised by a dissociation constant (Kd) of 0.0038 µM, the off-rate constant (koff) is 0.00431 s⁻¹ and the kon was 1.14e+06 M⁻¹ s⁻¹. The IC50 in assay [4] was determined as 0.0097 µM. In assay [5], this molecule displayed an IC50 of about 0.01 µM. In assay [6], this molecule had an IC50 of 0.049 µM.
